Laboratory results taken from US20240116985A1 (published 2024).
Starred links: 1 amine or outer side, 2 acyl side, 3 side chain; linkers in the order of their positions; H or OH if unused. Positions of bridges follow the written chain, without caps; N, C: chain ends. Non-standard residues stand in square brackets, D forms with d. Primed or numbered codes have the meaning given here. RdN(3) = (R)-4-(((allyloxy)carbonyl)(methyl)amino)-2-amino-2-methylbutanoic acid, stapling residue, C=CCOC(=O)N(C)CC[C@@](C)(N[*:1])C(=O)[*:2]; RdN″ = (R)-4-(((allyloxy)carbonyl)(methyl)amino)-2-amino-2-methylbutanoic acid (stapling residue), C=CCOC(=O)N(C)CC[C@@](C)(N[*:1])C(=O)[*:2]; RgN = (R)-3-(((allyloxy)carbonyl)(methyl)amino)-2-amino-2-methylpropanoic acid (stapling residue), C=CCOC(=O)N(C)C[C@@](C)(N[*:1])C(=O)[*:2]; PyrS(3) = (S)-1-((allyloxy)carbonyl)-3-aminopyrrolidine-3-carboxylic acid, stapling residue, C=CCOC(=O)N1CC[C@@](N[*:1])(C(=O)[*:2])C1; PyrS″ = (S)-1-((allyloxy)carbonyl)-3-aminopyrrolidine-3-carboxylic acid (stapling residue), C=CCOC(=O)N1CC[C@@](N[*:1])(C(=O)[*:2])C1; RdN = (R)-4-(((allyloxy)carbonyl)(methyl)amino)-2-amino-2-methylbutanoic acid, C=CCOC(=O)N(C)CC[C@@](C)(N[*:1])C(=O)[*:2]; Az = 1-((allyloxy)carbonyl)-3-aminoazetidine-3-carboxylic acid (stapling residue), C=CCOC(=O)N1CC(N[*:1])(C(=O)[*:2])C1; PyrS = (S)-1-((allyloxy)carbonyl)-3-aminopyrrolidine-3-carboxylic acid, C=CCOC(=O)N1CC[C@@](N[*:1])(C(=O)[*:2])C1; Phe(3,4-F2) = N[C@@H](Cc1ccc(F)c(F)c1)C(=O)O; S7 = C[C@@](CCCCCC=[*:3])(N[*:1])C(=O)[*:2]; Phe(3-F) = N[C@@H](Cc1cccc(F)c1)C(=O)O; d(αMeF) = C[C@@](N)(Cc1ccccc1)C(=O)O; 2Pal = N[C@@H](Cc1ccccn1)C(=O)O; R8 = C=CCCCCCC[C@@](C)(N)C(=O)O; Cha = N[C@@H](CC1CCCCC1)C(=O)O; S8 = C=CCCCCCC[C@](C)(N)C(=O)O; hLeu = CC(C)CC[C@H](N)C(=O)O; S5 = C=CCCC[C@](C)(N)C(=O)O; Nle = CCCC[C@H](N)C(=O)O

T1: full-length beta-Catenin (Uniprot ID P35222) (Homo sapiens (Human), UniProt P35222 2-781)
T1 construct: The assay text says 'full-length'; also called B-Catenin; bCat
T1 sequence: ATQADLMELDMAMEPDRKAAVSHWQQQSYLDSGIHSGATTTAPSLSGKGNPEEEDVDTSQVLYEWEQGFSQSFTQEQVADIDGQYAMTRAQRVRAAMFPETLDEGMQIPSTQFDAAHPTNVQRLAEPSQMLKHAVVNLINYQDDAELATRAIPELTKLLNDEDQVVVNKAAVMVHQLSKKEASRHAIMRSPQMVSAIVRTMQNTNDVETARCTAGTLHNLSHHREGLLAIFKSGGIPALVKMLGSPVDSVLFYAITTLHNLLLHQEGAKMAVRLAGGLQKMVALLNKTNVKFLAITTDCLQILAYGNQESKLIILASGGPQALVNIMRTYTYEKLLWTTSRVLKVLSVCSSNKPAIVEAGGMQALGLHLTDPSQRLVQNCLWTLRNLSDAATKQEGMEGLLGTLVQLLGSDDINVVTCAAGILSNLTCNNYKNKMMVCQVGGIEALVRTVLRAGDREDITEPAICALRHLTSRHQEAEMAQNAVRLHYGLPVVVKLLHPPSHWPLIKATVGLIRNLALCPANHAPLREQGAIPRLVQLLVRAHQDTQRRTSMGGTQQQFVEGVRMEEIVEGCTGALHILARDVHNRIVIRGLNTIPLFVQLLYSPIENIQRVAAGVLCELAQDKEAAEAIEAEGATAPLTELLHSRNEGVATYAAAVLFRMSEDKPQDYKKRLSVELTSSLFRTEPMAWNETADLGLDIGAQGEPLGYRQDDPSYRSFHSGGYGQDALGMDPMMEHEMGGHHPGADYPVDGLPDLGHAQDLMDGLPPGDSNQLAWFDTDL

T2: full-length beta-Catenin (Uniprot ID P35222) (Homo sapiens (Human), UniProt P35222 2-781)
T2 construct: Used full-length in both the FP and the AlphaScreen assay; also called B-Catenin; bCat
T2 sequence: T1 sequence

B1: I-42 (peptide)
peptide: FDAXDDAAFVXFWQ
modifications: not fully specified; Ac-Phe-Asp-Ala-RdN-Asp-Asp-Ala-Ala-Phe-Val-S4-Phe-Trp-Gln-NH2 as printed: N-terminal acetyl, C-terminal amide, RdN at 4 stapled to S4 at 11
notes: Stapled peptide composition
B2: I-41 (peptide)
peptide: FDAXDDAAFVXFWQ
modifications: not fully specified; Ac-Phe-Asp-Ala-RdN-Asp-Asp-Ala-Ala-Phe-Val-S4-Phe-Trp-Gln-NH2 as printed: N-terminal acetyl, C-terminal amide, RdN at 4 stapled to S4 at 11
notes: Stapled peptide composition
B3: I-43 (peptide)
peptide: FDAXDDAAFVXFWQ
modifications: not fully specified; Ac-Phe-Asp-Ala-RgN-Asp-Asp-Ala-Ala-Phe-Val-S8-Phe-Trp-Gln-NH2 as printed: N-terminal acetyl, C-terminal amide, RgN at 4 stapled to S8 at 11
notes: Stapled peptide composition
B4: I-40 (peptide)
peptide: Ac-FDA[R8]DDAAFV[Az]FWQ-NH2
modifications: staple 4-11; not fully specified; printed as Ac-Phe-Asp-Ala-R8-Asp-Asp-Ala-Ala-Phe-Val-Az-Phe-Trp-Gln-NH2
notes: Stapled peptide composition
B5: I-68 (peptide)
peptide: Ac-ADI[RdN″]D[Nle]AAFQ[S7]FWH-NH2
modifications: staple 4-11
notes: Stapled peptide; also called Ac-Ala-Asp-Ile-RdN-Asp-nLeu-Ala-Ala-Phe-Gln-S7-Phe-Trp-His-NH2
B6: I-74 (peptide)
peptide: Ac-FDA[R8]DDAA[Cha]V[PyrS″]FWQ-NH2
modifications: staple 4-11; not fully specified; printed as Ac-Phe-Asp-Ala-R8-Asp-Asp-Ala-Ala-Cha-Val-PyrS-Phe-Trp-Gln-NH2
notes: Stapled peptide; also called Ac-Phe-Asp-Ala-R8-Asp-Asp-Ala-Ala-Cha-Val-PyrS-Phe-Trp-Gln-NH2
B7: I-60 (peptide)
peptide: Ac-FDA[R8]DDAAFV[PyrS][Cha]WQ-NH2
modifications: staple 4-11
notes: Stapled peptide; also called Ac-Phe-Asp-Ala-R8-Asp-Asp-Ala-Ala-Phe-Val-PyrS-Cha-Trp-Gln-NH2
B8: I-77 (peptide)
peptide: Ac-FDA[R8]DDAA[Phe(3-F)]V[PyrS]FWQ-NH2
modifications: staple 4-11
notes: Stapled peptide; also called Ac-Phe-Asp-Ala-R8-Asp-Asp-Ala-Ala-3FF-Val-PyrS-Phe-Trp-Gln-NH2
B9: I-72 (peptide)
peptide: Ac-ADI[RdN]D[Cha]AAFQ[S7]FWH-NH2
modifications: staple 4-11; not fully specified; printed as Ac-Ala-Asp-Ile-RdN-Asp-Cha-Ala-Ala-Phe-Gln-S7-Phe-Trp-His-NH2
notes: Stapled peptide; also called Ac-Ala-Asp-Ile-RdN-Asp-Cha-Ala-Ala-Phe-Gln-S7-Phe-Trp-His-NH2
B10: I-69 (peptide)
peptide: Ac-ADI[RdN″]D[Nle]AAFQ[S7]FWH-NH2
modifications: staple 4-11
notes: as for B5
B11: I-76 (peptide)
peptide: Ac-FDA[R8]DDAA[Nle]V[PyrS(3)]FWQ-NH2
modifications: staple 4-11
notes: Stapled peptide; also called Ac-Phe-Asp-Ala-R8-Asp-Asp-Ala-Ala-nLeu-Val-PyrS-Phe-Trp-Gln-NH2
B12: I-79 (peptide)
peptide: Ac-FDA[R8]DDAA[Phe(3,4-F2)]V[PyrS]FWQ-NH2
modifications: staple 4-11
notes: Stapled peptide; also called Ac-Phe-Asp-Ala-R8-Asp-Asp-Ala-Ala-34FF-Val-PyrS-Phe-Trp-Gln-NH2
B13: I-73 (peptide)
peptide: Ac-ADI[RdN(3)]D[Cha]AAFQ[S7]FWH-NH2
modifications: staple 4-11; not fully specified; printed as Ac-Ala-Asp-Ile-RdN-Asp-Cha-Ala-Ala-Phe-Gln-S7-Phe-Trp-His-NH2
notes: as for B9
B14: I-47 (peptide)
peptide: Ac-FD[R8]ADDAAF[S5]AFWQ-NH2
modifications: staple 3-10; also: staple isomer composition: earlier-eluting HPLC peak
notes: Stapled peptide; also called Ac-Phe-Asp-R8-Ala-Asp-Asp-Ala-Ala-Phe-S5-Ala-Phe-Trp-Gln-NH2
B15: I-51 (peptide)
peptide: Ac-FD[R8]ADDAAF[PyrS(3)]AFWQ-NH2
modifications: staple 3-10
notes: Stapled peptide; also called Ac-Phe-Asp-R8-Ala-Asp-Asp-Ala-Ala-Phe-PyrS-Ala-Phe-Trp-Gln-NH2
B16: I-75 (peptide)
peptide: Ac-FDA[R8]DDAA[Cha]V[PyrS″]FWQ-NH2
modifications: staple 4-11; not fully specified; printed as Ac-Phe-Asp-Ala-R8-Asp-Asp-Ala-Ala-Cha-Val-PyrS-Phe-Trp-Gln-NH2
notes: as for B6
B17: I-70 (peptide)
peptide: Ac-ADI[RdN″]D[hLeu]AAFQ[S7]FWH-NH2
modifications: staple 4-11
notes: Stapled peptide; also called Ac-Ala-Asp-Ile-RdN-Asp-hLeu-Ala-Ala-Phe-Gln-S7-Phe-Trp-His-NH2
B18: I-71 (peptide)
peptide: Ac-ADI[RdN″]D[hLeu]AAFQ[S7]FWH-NH2
modifications: staple 4-11
notes: as for B17
B19: I-50 (peptide)
peptide: Ac-FD[RdN(3)]ADDAAF[S7]AFWQ-NH2
modifications: staple 3-10; also: later-eluting HPLC isomer, E/Z not assigned
notes: Stapled peptide; also called Ac-Phe-Asp-RdN-Ala-Asp-Asp-Ala-Ala-Phe-S7-Ala-Phe-Trp-Gln-NH2
B20: I-49 (peptide)
peptide: Ac-FD[RdN(3)]ADDAAF[S7]AFWQ-NH2
modifications: staple 3-10; also: earlier-eluting HPLC isomer, E/Z not assigned
notes: as for B19
B21: I-61 (peptide)
peptide: Ac-FDA[R8]DDAAFV[PyrS][Cha]WQ-NH2
modifications: staple 4-11
notes: as for B7
B22: I-48 (peptide)
peptide: FDXADDAAFXAFWQ
modifications: not fully specified; N-terminal Ac; C-terminal NH2; R8 at 3 and S5 at 10, stapled
notes: as for B14
B23: I-46 (peptide)
peptide: FDAXDDAAFVXFWQ
modifications: not fully specified; N-terminal Ac; C-terminal NH2; RgN at 4 and S7 at 11, stapled
notes: Stapled peptide; also called Ac-Phe-Asp-Ala-RgN-Asp-Asp-Ala-Ala-Phe-Val-S7-Phe-Trp-Gln-NH2
B24: I-58 (peptide)
peptide: Ac-FDA[R8]DQAAFV[PyrS]FWQ-NH2
modifications: staple 4-11; not fully specified; printed as Ac-Phe-Asp-Ala-R8-Asp-Gln-Ala-Ala-Phe-Val-PyrS-Phe-Trp-Gln-NH2
notes: Stapled peptide; also called Ac-Phe-Asp-Ala-R8-Asp-Gln-Ala-Ala-Phe-Val-PyrS-Phe-Trp-Gln-NH2
B25: I-59 (peptide)
peptide: Ac-FDA[R8]DQAAFV[PyrS″]FWQ-NH2
modifications: staple 4-11; not fully specified; printed as Ac-Phe-Asp-Ala-R8-Asp-Gln-Ala-Ala-Phe-Val-PyrS-Phe-Trp-Gln-NH2
notes: as for B24
B26: I-57 (peptide)
peptide: Ac-FDA[R8]D[d(αMeF)]AAFV[PyrS″]FWQ-NH2
modifications: staple 4-11; not fully specified
notes: Stapled peptide; also called Ac-Phe-Asp-Ala-R8-Asp-aMeDF-Ala-Ala-Phe-Val-PyrS-Phe-Trp-Gln-NH2
B27: I-56 (peptide)
peptide: Ac-FDA[R8]D[d(αMeF)]AAFV[PyrS″]FWQ-NH2
modifications: staple 4-11
notes: as for B26
B28: I-62 (peptide)
peptide: Ac-FDA[R8]DDAAFV[PyrS″]YWQ-NH2
modifications: staple 4-11; not fully specified; printed as Ac-Phe-Asp-Ala-R8-Asp-Asp-Ala-Ala-Phe-Val-PyrS-Tyr-Trp-Gln-NH2
notes: Stapled peptide; also called Ac-Phe-Asp-Ala-R8-Asp-Asp-Ala-Ala-Phe-Val-PyrS-Tyr-Trp-Gln-NH2
B29: I-63 (peptide)
peptide: Ac-FDA[R8]DDAAFV[PyrS]YWQ-NH2
modifications: staple 4-11; not fully specified; printed as Ac-Phe-Asp-Ala-R8-Asp-Asp-Ala-Ala-Phe-Val-PyrS-Tyr-Trp-Gln-NH2
notes: as for B28
B30: I-80 (peptide)
peptide: Ac-FDA[R8]DDAAFV[PyrS][2Pal]WQ-NH2
modifications: staple 4-11
notes: Stapled peptide; also called Ac-Phe-Asp-Ala-R8-Asp-Asp-Ala-Ala-Phe-Val-PyrS-2PyrA-Trp-Gln-NH2
B31: I-81 (peptide)
peptide: Ac-FDA[R8]DDAAFV[PyrS″][2Pal]WQ-NH2
modifications: staple 4-11
notes: as for B30

Molecular target: T1, full-length beta-Catenin (Uniprot ID …)
Test: AlphaScreen competition vs biotin-TCF4(10-53) on full-length beta-catenin
Experimental: (§1) Equal volume of the titrated peptide was added to the plate and incubated for 15 minutes at 20° C. Then 4 uL of donor and 4 uL acceptor beads at 10 ug/mL were added to the plate, for a 16 uL reaction pool and protected from light for 60 minutes at 20° C. prior to read. Reads were performed on a CLARIOstar plate reader (BMG Labtech) in duplicate, and data were fitted to a 1:1 binding model with hill slope using an in-house script. All provided concentrations are final concentrations.

EC50 [µM]	Binder
9.34	B1
≥ 10	B2
≥ 10	B3
≥ 10	Ac-FDA[RgN]DDAAFV[S8]FWQ-NH2 (staple 4-11, Stapled peptide composition) [I-44]
≥ 10	B4
≥ 10	Ac-FDA[RgN]DDAAFV[S7]FWQ-NH2 (staple 4-11, Stapled peptide composition) [I-45]

Molecular target: T2, full-length beta-Catenin (Uniprot ID …)
Test: AlphaScreen competition; full-length beta-catenin, biotin-TCF4(10-53) probe
Experimental: as §1

EC50 [µM]	Binder
8.12	B5
≥ 10	B6
≥ 10	B7
≥ 10	B8
≥ 10	B9
9.1	B10
≥ 10	B11
3.97	B12
≥ 10	B13
≥ 10	B14
≥ 10	B15
≥ 10	B16
≥ 10	B17
≥ 10	B18
≥ 10	B19
≥ 10	B20
8.9	B21
≥ 10	B22
≥ 10	B23
≥ 10	B24
9.88	B25
≥ 10	B26
≥ 10	B27
≥ 10	B28
≥ 10	B29
≥ 10	B30
9.78	B31
